From article PMC3290569, “Macro-to-Micro Structural Proteomics: Native Source Proteins for High-Throughput Crystallization” (PLoS ONE, 2012)

B1: 6-phospho-beta-glucosidase (BglA) (enzyme, Escherichia coli, UniProt Q46829 1-479, looked up)
chain: MIVKKLTLPKDFLWGGAVAAHQVEGGWNKGGKGPSICDVLTGGAHGVPREITKEVLPGKYYPNHEAVDFYGHYKEDIKLFAEMGFKCFRTSIAWTRIFPKGDEAQPNEEGLKFYDDMFDELLKYNIEPVITLSHFEMPLHLVQQYGSWTNRKVVDFFVRFAEVVFERYKHKVKYWMTFNEINNQRNWRAPLFGYCCSGVVYTEHENPEETMYQVLHHQFVASALAVKAARRINPEMKVGCMLAMVPLYPYSCNPDDVMFAQESMRERYVFTDVQLRGYYPSYVLNEWERRGFNIKMEDGDLDVLREGTCDYLGFSYYMTNAVKAEGGTGDAISGFEGSVPNPYVKASDWGWQIDPVGLRYALCELYERYQRPLFIVENGFGAYDKVEEDGSINDDYRIDYLRAHIEEMKKAVTYDGVDLMGYTPWGCIDCVSFTTGQYSKRYGFIYVNKHDDGTGDMSRSRKKSFNWYKEVIASNGEKL
notes: 6-phospho-beta-glucosidase BglA, Escherichia coli, native source protein; source: purified from E. coli DH5α cells (CaptoQ, phenyl sepharose, MonoQ)
B2: Glutamate dehydrogenase (GDH) (enzyme, Escherichia coli, UniProt P00370 1-447, looked up)
chain: MDQTYSLESFLNHVQKRDPNQTEFAQAVREVMTTLWPFLEQNPKYRQMSLLERLVEPERVIQFRVVWVDDRNQIQVNRAWRVQFSSAIGPYKGGMRFHPSVNLSILKFLGFEQTFKNALTTLPMGGGKGGSDFDPKGKSEGEVMRFCQALMTELYRHLGADTDVPAGDIGVGGREVGFMAGMMKKLSNNTACVFTGKGLSFGGSLIRPEATGYGLVYFTEAMLKRHGMGFEGMRVSVSGSGNVAQYAIEKAMEFGARVITASDSSGTVVDESGFTKEKLARLIEIKASRDGRVADYAKEFGLVYLEGQQPWSLPVDIALPCATQNELDVDAAHQLIANGVKAVAEGANMPTTIEATELFQQAGVLFAPGKAANAGGVATSGLEMAQNAARLGWKAEKVDARLHHIMLDIHHACVEHGGEGEQTNYVQGANIAGFVKVADAMLAQGVI
notes: glutamate dehydrogenase, Escherichia coli, native source protein; hexamer (dimer of trimers); source: purified from E. coli DH5α cells (CaptoQ, phenyl sepharose, MonoQ)
B3: Glucose-6-phosphate isomerase (pGI) (enzyme)
chain: not shown
notes: glucose-6-phosphate isomerase, Escherichia coli, native source protein; also called phosphoglucose isomerase; source: purified from E. coli DH5α cells (CaptoQ, phenyl sepharose, MonoQ)

Molecular target: the molecule itself
Assay: crystal structure; novel structures of native source E. coli proteins, solved by molecular replacement and refined; oligomer seen in the crystal

Compared with B1, B2 is higher in “stoichiometry N” value: 2 for the first, 6 for the second.

With B3 the “stoichiometry N” value was 2.
